The substances below were run against pV2α-Tys, tyrosine-sulfated 18-mer V2 mimetic peptide (aa. 168-185 of HIV-1 BaL gp120) (HIV-1 (isolate BaL)) (assay: SPR).
“BG505 SOSIP.664 trimer pre-treated with the CD4 mimic CD4-M48U (from UniProt Q2N0S6 1-860; Q2N0S6 1-860) (complex)” showed a Kd of 161 nM, a koff of 0.005 s⁻¹ and a kon of 31000 M⁻¹ s⁻¹.
“gp120 (BaL) pre-complexed with the CD4 mimic CD4-M48U” was tested, and the Kd was 69.1 nM, the koff was 0.00334 s⁻¹ and the kon was 48300 M⁻¹ s⁻¹.
“recombinant monomeric gp120 (HIV-1 strain BaL) (natural protein)” showed a Kd of 79.1 nM, a koff of 0.00189 s⁻¹ and a kon of 23900 M⁻¹ s⁻¹.

— paper PMC5006643
